From doi:10.1101/2020.07.19.211243 come the findings set out here.

Experiment in all cases: SDS-PAGE
In assay [1] the target is Triops cancriformis (tadpole shrimp) sarcolamban peptide (Triops cancriformis).
Assay [2] deals with Daphnia pulex (water flea) sarcolamban peptide (Daphnia pulex).
For assay [3] the target is unchanged. This is another data set of the same source.

Several values for one entry are separate records, joined by “and”; a condition that tells them apart may be missing. Equal entries are not always repeated. Where two headings read alike, the source gives them in different places.

Usually stoichiometry N stands for a count of units in the complex or per binding partner.

Consider “Triops cancriformis (tadpole shrimp) sarcolamban peptide”, for which the stoichiometry N in assay [1] turned out to be 2. For the substance “Daphnia pulex (water flea) sarcolamban peptide”, the stoichiometry N was 3 and 4 and 5 in assay [2]; 2 in assay [3].
